Measured values reported in patent publication US20080233103.

Tested on: N-formyl-Met-Ala

Substance: recombinant histidine-tagged Mycobacterium tuberculosis peptide deformylase (mPDF), wild-type construct from pET-mPDF
- Michalis-Menton constant (Km): 4.1 ± 0.2 mM
- catalytic efficiency: 1220 ± 6 M⁻¹ s⁻¹
- velocity maxima (Vmax): 13.3±0.7 µmoles/min/mg protein
